Molecular target: Y75H holo-HasAp (heme-loaded hemophore HasAp, Y75H variant) (Pseudomonas aeruginosa) (UniProt G3XD33)
Assay: SPR

In the case of “HasR outer membrane receptor in styrene-maleic acid lipid nanodisc (HasR-SMALP)”, the Kd is reported as 394 nM.
